In test [1] the target is T1, human TNF receptor, biotinylated (human, UniProt P19438 30-211, limits assumed, biotinylated).
T1 construct: Immobilised on streptavidin-coated tubes
T1 sequence (looked up): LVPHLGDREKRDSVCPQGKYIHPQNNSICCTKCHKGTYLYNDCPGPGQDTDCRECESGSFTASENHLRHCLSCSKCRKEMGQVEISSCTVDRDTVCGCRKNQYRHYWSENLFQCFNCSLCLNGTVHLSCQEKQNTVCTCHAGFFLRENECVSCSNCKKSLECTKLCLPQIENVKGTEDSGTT
The test is described as follows: protein-DNA complex captured on biotinylated protein in streptavidin-coated PCR tubes; co-captured DNA detected by PCR and gel.

Test [2] has as its target T2, protein A (Sigma), biotinylated (UniProt P38507 37-477).
T2 construct: Immobilised on streptavidin-coated tubes; also called pA
The test is described as above.

Test [3] has as its target T3, BSA (Sigma), biotinylated (UniProt P02769 25-607).
T3 construct: Negative control surface
The test is described as above.

For test [4], the target named is T4, β-galactosidase (Sigma), biotinylated (Escherichia coli (strain K12), UniProt P00722 2-1024 = β-galactosidase, Biotinylated (sites not given); the native enzyme is a homotetramer, and one chain is given).
T4 construct: Immobilised on streptavidin-coated tubes or wells
The test is described as follows: method not stated.

T3 sequence (P02769 25-607 limits assumed): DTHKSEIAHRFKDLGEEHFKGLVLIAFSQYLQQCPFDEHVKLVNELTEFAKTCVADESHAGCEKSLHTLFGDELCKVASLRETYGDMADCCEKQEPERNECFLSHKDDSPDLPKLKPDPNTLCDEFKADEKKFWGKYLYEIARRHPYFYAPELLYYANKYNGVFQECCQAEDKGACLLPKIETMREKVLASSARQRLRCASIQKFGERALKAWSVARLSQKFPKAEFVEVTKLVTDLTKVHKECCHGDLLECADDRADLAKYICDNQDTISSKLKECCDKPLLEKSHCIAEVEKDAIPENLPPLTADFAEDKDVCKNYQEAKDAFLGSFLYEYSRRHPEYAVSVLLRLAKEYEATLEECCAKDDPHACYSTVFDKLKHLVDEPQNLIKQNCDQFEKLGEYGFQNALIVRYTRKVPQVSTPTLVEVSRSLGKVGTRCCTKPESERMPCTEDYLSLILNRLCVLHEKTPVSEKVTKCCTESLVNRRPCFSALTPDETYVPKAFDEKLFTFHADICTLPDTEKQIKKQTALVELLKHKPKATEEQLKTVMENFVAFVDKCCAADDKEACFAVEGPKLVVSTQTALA
T4 sequence (P00722 2-1024 limits assumed): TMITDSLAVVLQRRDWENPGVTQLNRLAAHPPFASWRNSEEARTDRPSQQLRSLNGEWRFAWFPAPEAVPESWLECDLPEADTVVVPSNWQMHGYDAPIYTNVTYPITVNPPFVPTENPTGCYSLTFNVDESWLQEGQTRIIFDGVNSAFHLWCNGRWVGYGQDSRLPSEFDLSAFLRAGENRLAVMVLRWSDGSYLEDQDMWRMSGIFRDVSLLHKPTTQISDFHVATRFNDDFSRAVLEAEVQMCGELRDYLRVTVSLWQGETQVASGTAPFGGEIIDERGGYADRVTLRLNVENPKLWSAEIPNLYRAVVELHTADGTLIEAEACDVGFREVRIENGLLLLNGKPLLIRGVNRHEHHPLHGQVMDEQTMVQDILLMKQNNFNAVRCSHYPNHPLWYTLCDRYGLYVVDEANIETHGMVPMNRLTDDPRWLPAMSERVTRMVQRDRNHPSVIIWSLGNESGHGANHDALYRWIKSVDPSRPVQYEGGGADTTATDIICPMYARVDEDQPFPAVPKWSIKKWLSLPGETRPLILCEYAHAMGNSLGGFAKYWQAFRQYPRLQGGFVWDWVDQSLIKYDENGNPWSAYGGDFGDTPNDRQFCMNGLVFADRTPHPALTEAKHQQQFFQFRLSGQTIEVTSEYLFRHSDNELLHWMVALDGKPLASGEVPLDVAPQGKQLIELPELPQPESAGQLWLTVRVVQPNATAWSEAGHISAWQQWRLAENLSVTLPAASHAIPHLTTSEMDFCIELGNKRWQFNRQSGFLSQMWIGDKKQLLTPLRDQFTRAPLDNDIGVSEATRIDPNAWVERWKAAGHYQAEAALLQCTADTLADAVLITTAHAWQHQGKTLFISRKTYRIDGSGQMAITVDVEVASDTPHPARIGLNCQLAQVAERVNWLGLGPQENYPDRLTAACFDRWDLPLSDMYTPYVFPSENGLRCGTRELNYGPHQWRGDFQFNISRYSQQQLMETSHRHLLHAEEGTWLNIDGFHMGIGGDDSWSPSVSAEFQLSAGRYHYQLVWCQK

B1: HA-tagged scArc repressor expressed from pIE2aA / pIE2a^2A-derived genetic elements (other)
chain: MGSTGGAAAGSGGGSGGGHMKGMSKMPQFNLRWPREVLDLVRKVAEENGRSVNSEIYQRVMESFKKEGRIGAGGGSGGGSGGGSGGGHMKGMSKMPQFNLRWPREVLDLVRKVAEENGRSVNSEIYQRVMESFKKEGRIGAGGGSGGGSYPYDVPDYA
notes: The same protein is encoded by pIE2A, pIE2aA and pIE2a^2A (they differ in the number of operators on the DNA); also called scArc-HA; pIE2-encoded scArc-HA
As to B1, the binding result in test [1], in test [2] and in test [3] was “no binding” throughout.

B2: anti-β-galactosidase Vκ domain antibody clone E5 (other)
VL: DIQMTQSPSSLSASVGDRVTITCRASQSVSSYLNWYQQKPGKAPKLLIYLASRLQSGVPSRFSGSGSGTDFTLTISSLQPEDFATYYCQQNWWLPPTFGQGTKVEIK
notes: The Vκ single domain itself; also called Vκ(E5); Vk(E5)
The term Kd denotes the constant that tells how readily two partners part at equilibrium. In the case of B2, in test [4], the Kd was greater than 1 µM.

B3: scArc expressed from pIE7aA, pIE7a2A, pIE7a3A or pIE7a4A (other)
chain: MGSTGGAAAKEAAAKEAAAKEAAAKELAAKEAAAKEAAAKEAAAKELAAGSGGGSGGGHMKGMSKMPQFNLRWPREVLDLVRKVAEENGRSVNSEIYQRVMESFKKEGRIGAGGGSGGGSGGGSGGGHMKGMSKMPQFNLRWPREVLDLVRKVAEENGRSVNSEIYQRVMESFKKEGRIGAGGGSGGGSYPYDVPDYA
notes: in vitro translated in the presence of 3F10 αHA mAb; also called scArc complex with DNA
B3: the binding result in test [2] and in test [3] was “no binding” in each case.

B4: HA-tagged scArc repressor expressed from pIE3A / pIE3aA-derived genetic elements (other)
chain: MSGSGGGSGGGHMKGMSKMPQFNLRWPREVLDLVRKVAEENGRSVNSEIYQRVMESFKKEGRIGAGGGSGGGSGGGSGGGHMKGMSKMPQFNLRWPREVLDLVRKVAEENGRSVNSEIYQRVMESFKKEGRIGAGGGSGGGSMGSTGGAAARSYPYDVPDYA
notes: In vitro translated; differs from the pIE2 form in that the MCS-encoded region lies between scArc and the HA tag; also called pIE3-derived scArc-HA; scArc-HA
B4: the binding result in test [3] is “no binding”.

B5: VH(DOM1h-10-27)-scArc fusion protein (pIE2aAVH(DOM1h-10-27)) (other)
chain: MAEVQLLESGGGLVQPGGSLRLSCAASGFTFEWYWMGWVRQAPGKGLEWVSAISGSGGSTYYADSVKGRFTISRDNSKNTLYLQMNSLRAEDAAVYYCAKVKLGGGPNFGYRGQGTLVTVSSAAGGGSGGGHMKGMSKMPQFNLRWPREVLDLVRKVAEENGRSVNSEIYQRVMESFKKEGRIGAGGGSGGGSGGGSGGGHMKGMSKMPQFNLRWPREVLDLVRKVAEENGRSVNSEIYQRVMESFKKEGRIGAGGGSGGGSYPYDVPDYA
notes: Human heavy chain VH domain antibody against human TNF receptor fused to scArc; in vitro translated, assayed as protein-DNA complex (one Arc operator), with the stabilising 3F10 mAb; also called VH(DOM1h-10-27) domain antibody fusion construct with scArc
B5: the binding result in test [3] is on record as “no binding”.

(Values after patent US20090176209A1 (DOMANTIS, published 2009).)
